Laboratory results as given in publication PMC6908968 (Cell, 2019).

How the values were obtained:
[1] = biological target: T1, thermolysin-cleaved EBOV GP on Jurkat-GP cells (cleaved GP) (Zaire ebolavirus, Makona (GP1 core …, strain))
T1 chain 1: not shown
T1 chain 2: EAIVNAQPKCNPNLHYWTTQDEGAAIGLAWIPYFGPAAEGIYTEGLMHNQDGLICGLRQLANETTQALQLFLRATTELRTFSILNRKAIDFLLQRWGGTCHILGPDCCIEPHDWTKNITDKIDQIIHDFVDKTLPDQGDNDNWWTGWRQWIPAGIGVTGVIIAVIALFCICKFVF

[2] = biological target: EBOV GP ectodomain residues 1-636 (GPec) (Zaire ebolavirus, strain  …, UniProt Q05320)

Row | Binder | binding result [1] | binding result [2]
1 | 5.6.c3225 (antibody, V domains shown) VH: EVQLVESGGGLVKPGGSLRLSCAASGFTFSSYTMNWVRQAPGKGLEWVSFISSTSRYIHYADSVKGRFTISRDNAKNSLFLQINSLRDEDTAVYFCARESVDDTSMLYYGLDVWGQGTTVTVSS VL: DIQMTQSPSSLSASVGGRVTITCRASQSISSSLSWYQQKPGKAPKFLIYGASTLESGVPSRFSGSGSGTDFTLTISSLQPEDFATYFCQQSHSLPWTFGQGTKVEIK | binds | binds
2 | 5.6.c3295 (antibody, V domains shown) VH: EVQLVESGGDLVQPGGSLRLSCAASGFTVNANYLGWVRQTPGKGLEWVSLIYSGSGSTYYADSVKGRFTLSRDSSKNTLFLHMNSLRPEDTAVYYCARAGGCGGDCYSYYFDYWGRGTLVTVSS VL: DIQMTQSPSTLSASVGDRVTITCRASQSISRWLAWYQQKPGKAPKLLIYRASSLQNGVPSRFSGSGSGTEFTLTISGLQPDDFGIYYCQEYSSRYTFGQGTQLEIK | binds | binds
3 | 5.6.c3236 (antibody, V domains shown) VH: QVQLLESGPGLVKPSETLSLTCAVSGGSVSSNTHFWSWIRQPPGKGLEWIGYTLSSGSTAYNPSLKSRVSLSVDTSKNHFSLKLTSVTAADTAVYYCAGTVIQGVVSFDWFDPWGQGTLVTVSS VL: DIQMTQSPSSLSASVGDRVTITCRASQSINSYLNWYQQRPGKAPKLLIYTTSNLQSGVPSRFSGSGSGTDFTLTISSLQPEDFATYYCQQSYSTPLTFGGGTKVEIK | binds | binds
4 | 5.6.c3250 (antibody, V domains shown) VH: QVQLVESGGGLVKPGGSLRLSCAASGFTFSDYDMSWIRQAPGKGLEWISYISSSGTTIYDADSVKGRFTISRDNAKNSLSLQVNSLRAEDTAVYYCARNVEQIVGATLDYWGQGTLVTVSS VL: EIVLTQSPATLSLSPGERATLSCRASQSISSFLAWYQQKLGQAPRLLIFDASNRATGIPARFSGSGSGTDFTLTISSLEPEDFAVYYCHHWTFGQGTKVEIK | binds | binds
5 | 5.6.c3221 (antibody, V domains shown) VH: QEELVESGGGVVQPGRSLRLSCAASTFTFSIYAMHWVRQAPGKGLEWVAVISYDGSNRYYADSVKGRFTISRDNSKNTVYLQMNSLRAEDTAVYFCAKDLGSNGWYYFDSWGQGTLVTVSS VL: EIVLTQSPGTLSLSPGERATLSCRASQSVSSRYLAWYQQKPGQAPRLLIYGVSSRATGVPDRFSGSGSGTDFTLTISRLEPEDFAVYYCQHYGSSPWRPFGQGTKLEIK | binds | binds
6 | 5.6.c3197 (antibody, V domains shown) VH: QVQVVESGGGVVQPGKSLRLSCAASGFTFSSYGMHWVRQAPGKGLEWVAFIAYDGSNEYYADSVKGRFTISRDNSKITLYLQMNSLRAEDTAMYYCAKEGAGHDALYYYGMDVWGQGTTVTVSS VL: DIQMTQSPSSVSASVGDRVTITCRASQGISFWLAWYQQKPGKAPELLISAASSLQSGVPSRFSGSGSGTDFTLTISSLQPEDFATYYCLQAHSFPYTFGQGTKLEIK | binds | binds
7 | 5.6.c3191 (antibody, V domains shown) VH: QVQLAQSGAEVKKPGASVKVSCKSSGYNFTTHGFNWVRQVPGQGLEWMGWISAYNADTNYAQKFQGRLTLTTETSSNTAYMELRSLTSDDTAVYYCARGEEYSTLYFYGMDVWGQGTTVTVSS VL: DIQMTQSPSSVSASVGDRVTITCRASQGISIWLAWYQQKPGKAPKLLIYGASTLQSGVPSRFSGSGSGADYTLTINSLQPEDFATYFCQQAHSFPYTFGQGTKLEIR | binds | binds
8 | 5.6.c3206 (antibody, V domains shown) VH: QVQLKESGPGLVKPSQTLSLTCSVSGGAISNGGYCYTWIRQRPGKGLESIGYMHYSGSPYYNPSLKSRVTIYVDTSKNQFSLKLSSVTAADTAVYYCARGLLWFGESPFYYFDYWGQGTLVTVSS VL: QSVLTQPPSVSGAPGQRVTISCTGSSSNIGAGYDVHWYQQLPGTAPKLLIYGNSNRPSGVPDRFSGSKSGTSASLAITGLQAEDEADYYCQSCDSSLSVVFGGGTKLTVL | binds | binds
